Results taken from the DeepSol protein solubility set.

Assay: soluble on expression in E. coli; label from the status in PepcDB or PDB records

Sequence	soluble on expression in E. coli
GPGSMSDAFDIDEDMKMRIRVLNEIMYEDELDDGQQDVHLARGDIIDGTSDSDRDDNGGGGQRRRERRRGGGGADVCAPGPPRAETWAAVEGPEAAAASAASSLQQRAPRDEYHDKRYHEKRSKDRLARTKQIQSARNERVPAYANKKKTSKAKAGGSKGSLQRAVKRGKFTADA	soluble
GPGSMSEHATTDLEGRYAQLATIQSEIDAAPLLSPTVEKLGDGCNLMTEFSDNPPMLVKVVSLWRNEETKYKGIRYARRDGNCFYRSVVFGMHESLLNNKERAGAHLERITDLSRQVVADYGNFAEDFCHPAVEMAKKIESGECSTVEQLYELSTNGEAEYALYFYRYAVSHHIRTHEDDFLPFVVGMGHETVSEFCSVEVDAVASEADNVQVVAFAQCFDVRVIVEYVDGREGDCTTRHTFQQKDSHDANEYTTIEVTLLYRPGHYDLLYK	soluble
GPGSMSETIPVSVQCCEGRFELSVDSNHTLRDVLRQFKREVAALDPINLEEYVVNHEGKLLLDDSVTLQTVGVKKDSVFVLVRKACCPAASPEKDEDDM	soluble
GPGSMSTFETVKEEKLEFEKNCDQHIYEKALLTFKGVDGMDVYNCSAPFKYEGRTHIFGRVEKRLEWANSYVRLFVETNKDEFTLVPGNMVWQLEDPFVSNIDNEMFLGGTHIRKTNNRVFTYYCDFFRGTAENLSYFTTGPDNMKDIRLVKLANNKIGVFSRPKTAAHAFIGFTVINNVMELTPTVIEEAPPLNVIHTGAWGGVNQAYLLSSDKLGCISHYSYIDKDEDGNEITVYTNYSFVLNPYLREVEDARIIGTKGCYPKCSPKVHKLLDCAFSSGIVMREDGRCDLYSGLGDAHEGRITIDYPFEGHGTLIDNLHF	soluble
GPGSMTSASKKSTEENSEEVECTNSSRKRRMRQRERNIYISECHGIKELSSLVRRGFQQIMTARGLFISGCPDLVKLDDGTSGEEEGGEYYRQLEEVQVSRCPRLTDLSGLGKCKYLKVVDISDCRKLENIGELKSCRTLEKLALSRCTGLVDVNLRGFGKLLSFDIFKCANLTKICGLFGCPILETLTVEECGDVKEMEVRTIRGRVETLRIAGKRAMENVGFLCLFTNMKKLALCGCVGTVAEVLGEEAGGLPRLKWLELIGIRMERQMKDKPGNGVAATEEGNNAKRVLPMIVQNE	not soluble
GPGSMVPTLHPGEYIVFVPYTMLQVRRWFNAPLVNLSDVVVVKVSDDLSVCKRVVKCTSSRTQAEEWGKEHYVEVMPALYSPPAAQHTNGDDEDSTEIDSVANSERAYFDYVARNTVRSKDWDSCIDRIPNPSQWVWLEGDNKSESFDSRRCGPVPIECIRGLVLASIWPSPHTLQRPPPPPRASQLH	not soluble
GPGSMVRRNNKSTESTIVFTRGAGDNSLWDDADLIRLWNAQLEEDQCEKAEDEAPVPSTVSEDGSLITTEDDEVAESEQKSSLRSFQSGQREAGVASAIVTAAPINASVAPVVLHQSMFDRLPADIRQLLVAYFNAGYEAGYFVGKRDGSSKVGGKRARGE	not soluble
GPGSMVVASCPGKVLILGGYLIVEEPNVGISVGTTARFVTRVASWKKCSDGKCRVHIVSSQFNKEFTFECAAEEDSDSTIKIVQLEGAPSPFLFYGILYSVAGALLFGGDIFRDVTLELLADNDFYSQRNYLESQGKPVTAANLRLIPRYTPLLGEVSKTGLGSSAAMTTSVVACLLQLYVFDSKKNNATESVERAPELPLRLEDVTEFIHRISQVAHCVAQGKVGSGFDVYTATFGTCVYRRFSARVLEKLVKGNEPPKRVTIPLLRECVETDEVWVQRIPFRLPTGLQLLLGDVHKGGTETPGMVSKVMSWRRSVTTDPNSLWERLRMSNEKYVEALQGLIKQSQEAPVAYTEAVKNLKSVVLAKHNPSTEAERLWVEAASVASTSRRYLREMGEAAQVQIEPPELTSLLDATCSIPGVFAVGCPGAGGYDAVFALVLGEEVCSAVERFWECYNDLQVCPLLVRGDANGLVLD	not soluble
GPGSMYRSDTDERKRRQSVSWRKRASFIELDCGEDSFFVANNYKVIGVADGVGGWRAEGVDPSLFANALMENAKLFAETHRGERDPEKILDAAYTKVVKDGIVKVGSSTACVATLRKDDDGSHKLDVANLGDSGVMVVRNRSMYFRAHEKVHGFNAPFQLAVLPQPMVGRAFSDRVQDCVRESVPVQEGDVIVMGTDGLFDNRFNSQLAADAGWIGKVEESPIAKIPLVGFFLSGILDEKIDYVDPYRVAQRIITDAYKTSVNPDTNSPWASMLRQFGQTDAKGGKPDDITVLLSRVSTREELSNSTSW	not soluble
GPGSPKLVRINTNEKGITNVQLARAPVNSMSLELFQELNQWMLWLGSNEETKAVIISSAIPTVFSAGLDLVEVHNPKPDRVAVFWQSFQEMWLILNSFPKPIIAAITGNSPAAGCIIAMGCDYRVMARGPKGNTNNNRLYRIGLNETKLGLVAPPWVMPAYAYLLGSRQAERMLQLGETPVADDARNLGLIDEVAADEERAIEVAYQQAERFLSVPQQSRWMARDMMRREYLQMLASDEERNYDTEFFTQFVQSPEVQKNLESYLERLKSCSRK	soluble
GPGSYDSNLYVASLPEWFTDADLHELFKRFGPIVSAKVMCHKGTHHCKGYGFVLFQRTDDAAVARSEMIGHVVGGNKIQVRRARSAASAPLTEAASAVSGTFTESSGSTRTSSSNVTPINYSVHVVPSQQPSFNPLYPATTALTPTYVLTNPSAPVQNATHTQPAMLVAVPNGRTMVQGAGDVMYMVLASSAQQMQSTSAIY	not soluble
GPHMLGILNKMFDPTKRTLNRYEKIANDIDAIRGDYENLSDDALKHKTIEFKERLEKGATTDDLLVEAFAVVREASRRVTGMFPFKVQLMGGVALHDGNIAEMKTGEGKTLTSTLPVYLNALTGKGVHVVTVNEYLASRDAEQMGKIFEFLGLTVGLNLNSMSKDEKREAYAADITYSTNNELGFDYLRDNMVLYKEQMVQRPLHFAVIDEVDSILIDEARTPLIISGQAAKSTKLYVQANAFVRTLKAEKDYTYDIKTKAVQLTEEGMTKAEKAFGIDNLFDVKHVALNHHINQALKAHVAMQKDVDYVVEDGQVVIVDSFTGRLMKGRRYSEGLHQAIEAKEGLEIQNESMTLATITFQNYFRMYEKLAGMTGTAKTEEEEFRNIYNMQVVTIPTNRPVVRDDRPDLIYRTMEGKFKAVAEDVAQRYMTGQPVLVGTVAVETSELISKLLKNKGIPHQVLNAKNHEREAQIIEEAGQKGAVTIATNMAGRGTDIKLGEGVKELGGLAVVGTERHESRRIDNQLRGRSGRQGDPGITQFYLSMEDELMRRFGAERTMAMLDRFGMDDSTPIQSKMVSRAVESSQKRVEGNNFDSRKQLLQYDDVLRQQREVIYKQRFEVIDSENLREIVENMIKSSLERAIAAYTPREELPEEWKLDGLVDLINTTYLDEGALEKSDIFGKEPDEMLELIMDRIITKYNEKEEQFGKEQMREFEKVIVLRAVDSKWMDHIDAMDQLRQGIHLRAYAQTNPLREYQMEGFAMFEHMIESIEDEVAKFVMKAEIENNLEREEVVQGQTTAHQPQEGDDNKKAKKAPVRKVVDIGRNAPCHCGSGKKYKNCCGRTE	soluble
GPLGSEEEQFALALKMSEQEAREVNNQEEKEEELLRKAIAESLNS	soluble
GPLGSGTWDCDTCLVQNKPEAVKCVACETPKPG	soluble
GPLGSLPEELVHAGWEKCWSRRENRPYYFNRFTNQSLWEMPVLGQHDVISDP	soluble
GPLHMKAVVPGPAEHPLQYNYTFWYSRRTPGRPTSSQSYEQNIKQIGTFASVEQFWRFYSHMVRPGDLTGHSDFHLFKEGIKPMWEDDANKNGGKWIIRLRKGLASRCWENLILAMLGEQFMVGEEICGAVVSVRFQEDIISIWNKTASDQATTARIRDTLRRVLNLPPNTIMEYKTHTDSIKMPGRLGPQRLLF	soluble
GPSRVVYLGSIPYDQTEEQILDLCSNVGPVINLKMMFDPQTGRSKGYAFIEFRDLESSASAVRNLNGYQLGSRFLKCGYSSNSDISGVSQQQQQQYN	soluble
GPVDMTERLKVMTIFGTRPEAIKMAPLVLELQKHPEKIESIVTVTAQHRQMLDQVLSIFGITPDFDLNIMKDRQTLIDITTRGLEGLDKVMKEAKPDIVLVHGDTTTTFIASLAAFYNQIPVGHVEAGLRTWDKYSPYPEEMNRQLTGVMADLHFSPTAKSATNLQKENKDESRIFITGNTAIDALKTTVKETYSHPVLEKLGNNRLVLMTAHRRENLGEPMRNMFRAIKRLVDKHEDVQVVYPVHMNPVVRETANDILGDYGRIHLIEPLDVIDFHNVAARSYLMLTDSGGVQEEAPSLGVPVLVLRDTTERPEGIEAGTLKLAGTDEETIFSLADELLSDKEAHDKMSKASNPYGDGRASERIVEAILKHFNK	soluble
GQLVESGGGSVQAGGSLRLSCAASGIDSSSYCMGWFRQRPGKEREGVARINGLGGVKTAYADSVKDRFTISRDNAENTVYLQMNSLKPEDTAIYYCAAKFSPGYCGGSWSNFGYWGQGTQVTVSSH	soluble
GQPMNVTLQDDTQTLQEVVVTALGMKRATKALGYAVTEIKSDELNSNVVNPVSALQGKVAGVEISAGDGGLFGSSKILIRGASTLGSNNQPIYVVDGVILDNAIKNGDADWAANDTDWGNELKNLNPDDFESVSVLKGAAATALYGSRGLNGAVVITTKSGKGKK	not soluble
GREEAPNAEADILSCRLPGVVMTTSPIITNNSINIFVGPGTDISSLAPEFTLTPGATIDPPSGTARDFHSPQQYTVTAADGFWKKKYTVSVIDTELATIYNFEDTLGGQKYYIFVEREGEKVVMEWASGNAGYAMTGVPKTADDYPTFQFANGKTGKCLSLVTRSTGFFGSIMGMPIAAGNLFIGSFDVGNAMSNPLKATKFGLPFRHIPTYLAGYYKYKAGDQFTEGGKPVSGKRDICDIYAIMYETSESVPTLDGTNAFTSPNLVSIARIDDAKETDEWTYFKLPFHMLSGKYIDKEKLTAGKYNVAIVFTSSLEGDHFNGAIGSTLLIDEVELIYRSED	soluble
GSADAEYDVVVLGGGPGGYSAAFAAADEGLKVAIVERYKTLGGVCLNVGCIPSKALLHNAAVIDEVRHLAANGIKYPEPELDIDMLRAYKDGVVSRLTGGLAGMAKSRKVDVIQGDGQFLDPHHLEVSLTAGDAYEQAAPTGEKKIVAFKNCIIAAGSRVTKLPFIPEDPRIIDSSGALALKEVPGKLLIIGGGIIGLEMGTVYSTLGSRLDVVEMMDGLMQGADRDLVKVWQKQNEYRFDNIMVNTKTVAVEPKEDGVYVTFEGANAPKEPQRYDAVLVAAGRAPNGKLISAEKAGVAVTDRGFIEVDKQMRTNVPHIYAIGDIVGQPMLAHKAVHEGHVAAENCAGHKAYFDARVIPGVAYTSPEVAWVGETELSAKASARKITKANFPWAASGRAIANGCDKPFTKLIFDAETGRIIGGGIVGPNGGDMIGEVCLAIEMGCDAADIGKTIHPHPTLGESIGMAAEVALGTCTDLPPQKK	soluble
GSADETLCQTKVLLDIFTGVRLYLPPSTPDFSRLRRYFVAFDGDLVQEFDMTSATHVLGSRDKNPAAQQVSPEWIWACIRKRRLVAPC	soluble
GSDSSLFETYNVELVRKDGQSLGIRIVGYVGTSHTGEASGIYVKSVIPGSAAYHNGHIQVNDKIVAVDGVNIQGFANHDVVEVLRNAGQVVHLTLVRRKTSSSTSPLEPPSDRGTV	soluble
GSEDLKKLEEEFDVRLGVYAIDTGADKEISYRENERFAYTSTFKPLAVGAVLQTKSDEELEETITYSEEDLVTYSPITEQHVDEGMTLVEIADAAIRYSDNTAGNLLLEAMGGPDELETILRDIGDETIEMDRYETELNEAKPGDIRDTSTAKAMATTLQQYVLEDVLDADRREVLTNMLINNTTGDALIRAGVPDGWTVGDKTGAGGYGTRNDIGIIWPEGDEEPIVIAIMSSRDEEDADYDDKLIEKATEIVLQELRN	soluble
